Source: paper doi:10.1101/130245 (bioRxiv, 2017)
Values joined by “and” are separate entries in the source; they are usually repeats but may differ in a detail not shown here. Equal values may be shown once.

B1: chimera CH2 of 14-3-3σΔC Clu3 with the Gli phosphopeptide (other)
chain: GPHMERASLIQKAKLAEQAERYEDMAAFMKGAVEKGEELSCEERNLLSVAYKNVVGGQRAAWRVLSSIEQKSNEEGSAAAGPEVREYREKVETELQGVCDTVLGLLDSHLIKEAGDAESRVFYLKMKGDYYRYLAEVATGDDKKRIIDSARSAYQEAMDISKKEMPPTNPIRLGLALNFSVFHYEIANSPEEAISLAKTTFDEAMADLHTLSEDSYKDSTLIMQLLRDNLTLWTGSGSLRRASDPAQA
modifications: phosphoserine at the Ser that is Ser640 of Gli (RRApSDPAQA)
B2: 14-3-3/HSPB6 protein-phosphopeptide chimera CH1 (14-3-3σΔC Clu3 fused through a GSGS linker to the HSPB6 phosphopeptide) (other)
chain: GPHMERASLIQKAKLAEQAERYEDMAAFMKGAVEKGEELSCEERNLLSVAYKNVVGGQRAAWRVLSSIEQKSNEEGSAAAGPEVREYREKVETELQGVCDTVLGLLDSHLIKEAGDAESRVFYLKMKGDYYRYLAEVATGDDKKRIIDSARSAYQEAMDISKKEMPPTNPIRLGLALNFSVFHYEIANSPEEAISLAKTTFDEAMADLHTLSEDSYKDSTLIMQLLRDNLTLWTGSGSLRRASAPL
modifications: phosphoserine at the Ser that is Ser16 of HSPB6 (RRApSAPL)
B3: untagged C-terminally truncated human 14-3-3σ (14-3-3σΔC: residues 1-231) (domain or fragment)
chain: MERASLIQKAKLAEQAERYEDMAAFMKGAVEKGEELSCEERNLLSVAYKNVVGGQRAAWRVLSSIEQKSNEEGSEEKGPEVREYREKVETELQGVCDTVLGLLDSHLIKEAGDAESRVFYLKMKGDYYRYLAEVATGDDKKRIIDSARSAYQEAMDISKKEMPPTNPIRLGLALNFSVFHYEIANSPEEAISLAKTTFDEAMADLHTLSEDSYKDSTLIMQLLRDNLTLWT

Tests used:
crystal structure = biological target: the molecule itself; test: crystal structure
SEC = biological target: the molecule itself; test: SEC

Row | Protein | binding result (crystal structure) | stoichiometry N (SEC)
1 | B1 | binds | 
2 | B2 |  | 2 and 4
3 | B3 |  | 2
